Results on 1 substance are retold here after patent publication EP1418184A1.

In the assay the target is IL-12 receptor on activated peripheral blood lymphocytes (human) (UniProt P42701). In words: cell-based or functional assay.

HRS3-scFv-hi-IL-12 fusion protein returned an IFN-gamma secretion of preactivated T cells (ELISA, 48 h), activity against natural IL-12 at equimolar amounts (times lower than IL-12) of 5 to 10.
